Measured values published in US20150273076A1, “SP1 POLYPEPTIDES, MODIFIED SP1 POLYPEPTIDES AND USES THEREOF” (Fulcrum SP Ltd., priority 2006, published 2015).
≈ marks a conversion by molar mass, not a printed value. Entries after “also recorded” stand apart in the source; their conditions may differ.

Columns and labels:
[1] = tested on: Human colon adenocarcinoma (HT-29) cells; assay: In-vitro cytotoxicity in HT-29 cells; format: cell-based; conditions: HT-29 cells, dose inhibiting 50% of cell growth
From the text: FIGS. 24a and 24b are graphs illustrating the in-vitro cytotoxic effects of SP1-DOX complex. FIG. 24a—HT-29 cells cultured in 96 well microtiter plates were exposed to uncomplexed DOX (closed oval, magenta) or SP1-DOX complex (closed triangle, blue) prepared as described in FIGS. 9-15, at the indicated concentrations. FIG. 24b—HT-29 cells were exposed to uncomplexed SP1 (without DOX) (closed diamond, blue) or SP1-DOX complex (closed triangle, yellow) at indicated concentrations. Proportion of living cells was determined by MTT assay, and the IC50 was calculated.
HT-29 cells were prepared as in FIG. 24 above.
Human colon adenocarcinoma (HT-29) cells. The cells were grown in 50-ml flasks containing DMEM medium (Biological Industries, Bet Haemek), supplemented with 10% fetal calf serum, 1% glutamine and 1% Antibiotic-Antimicotic solution (Biolab, Israel). The cells were trypsinizated, and 2 ml medium containing 5×10^4 cells were plated in each well of a 6-wells plate. SP1, drugs or SP1-complexed with drugs was added at the indicated concentrations. The cells were incubated at 37° C. in a humidified atmosphere containing 5% CO2.After 48 hours the medium in the presence or absence of drugs was replaced in each well respectively, to maintain a constant supply of ingredients and drugs. After four days the medium was removed and the number of viable cells in the cultures was determined by spectroscopy.
The human colorectal adenocarcinoma cell line, HT-29, was used to evaluate the biological activity of the SP1-DOX complex, compared to that of the free drug and un-complexed SP1 protein. […] Thus, the SP1-DOX complex is at least as biologically active as free DOX.

[2] = tested on: human LS147T colon cancer; assay: In-vivo anti-tumorogenic activity in colon cancer xenograft; set-up: species or system CD1 nude mice; conditions: SP1-DOX 0.5 and free DOX 3 mg DOX/kg iv two times a week
Method: CD1 nude mice bearing human LS147T colon cancer (one million cells per animal) subcutaneous xenografted tumors were divided into two groups (n=6), and received either SP1-Dox (50 mg/Kg in PBS, about 0.5 mg DOX equivalent/Kg) or PBS (FIG. 27a), or uncomplexed DOX (3 mg/Kg) or PBS (FIG. 27b) alone injected intravenously into the tail vein twice per week for four weeks. Tumors were removed and weighed 35 days post engraftment.
Human LS147T colon cancer (one million cells per animal) were grafted sub cutaneously to CD1 nude mice, […], 18-20 g) (Meyer et al. 1995 Am J Dermatopath; 17:368-73). 8 days later a 3-10-mm tumor appeared in the point of injection. […]
8 days after tumor grafting SP1-DOX (50 mg/Kg in PBS, about […]), free DOX (3 mg/Kg in PBS) or PBS alone, six mice in each group, were injected iv to the tail vein twice a week for four weeks. Tumor dimension was determined by caliper measurements by the standard equation (Kalechman et al. Int J Cancer 2000; 86:281-8). […] Tumors were removed and their weight was determined.
The effect of SP1-complexing on the anti-tumorogenic activity of DOX was determined in vivo using the LS147 (human colon cancer) model in CD1 nude mice (Meyer 1995). […] At 35 days past tumor grafting, the animals were sacrificed, tumors were removed and their weight recorded (FIGS. 27a and 27b). […]

[3] = Heat stability (no precipitation after heat treatment); conditions: 10 min at 100° C. or 30 min at 85° C.
[4] = Oligomeric complex formation by SDS PAGE (unboiled samples); conditions: boiling and protease stability
Method: SP1 (20 μg) was prepared in SDS sample buffer at different SP1-monomer: SDS molar ratios and boiled (or not) (5 mM) prior to SDS-PAGE analysis. Heat stability of SP1 oligomer (10 μg) was tested in the same buffer at SP1-monomer: SDS=1:1733 and heated for 1 to 10 mM at different temperatures.
Purified 6HSP1 and ΔNSP1 were first denatured to the monomeric forms by boiling the proteins in SDS sample buffer. The denatured proteins were then separated in preparative SDS-PAGE, and visualized by Coomassie blue staining. The monomeric forms of two recombinant protein bands were excised. Gel slices that carried monomeric form of 6HSP1 (SEQ ID NO:7) and ΔNSP1 (SEQ ID NO:2) were mixed at 1:1 ratio (v/v). In order to enhance the surface/volume ratio, the gel slices were pulverized using a pestle and mortar in the presence of liquid nitrogen. […] The hetero-oligomeric complex was isolated by subjecting the eluated protein to Ni-NTA Agarose beads and the bound proteins were eluted by 400 mM imidazole using a standard procedure (Sigma protocol for P 6611). […] The composition of hetero-oligomeric SP1 was determined by SDS-PAGE and visualized by silver staining.

[5] = Resistance of SP1 complex to organic solvents; format: physicochemical
Method: 150 ul of 1 mg/ml samples in 10 mM sodium phosphate pH 7 were lyophilized overnight and resuspended in 150 μl organic solvents for 10 minutes. Following a 30 minutes speed vac the samples were resuspended in 150 μl water and analyzed by SDS-PAGE.
In order to further test the stability of SP1 and SP1 oligomeric complexes, wild type SP1 and the SP1 variant Cys2 SP1 were dissolved in buffer, exposed to organic solvents methanol and hexane, and analyzed by SDS-PAGE (FIG. 18).
In order to determine the stability of the SP1 complex in organic solvents, SP1 and Cys2 SP1-variant (SEQ ID NO: 3) were dissolved in organic solvents, dried, reconstituted with aqueous solvent, and separated on SDS-PAGE.

[6] = Doxorubicin complex formation and release (ultrafiltration, HPLC, SDS PAGE fluorescence); format: binding; conditions: for DOX complex formation: reducing conditions (DTT or GSH)
Method: Pure wild type SP1 or Cys2 SP1 mutant (1.5 mg/ml in 20 mM Sodium Phosphate buffered, pH=6.8) were incubated overnight at room temp, with DOX 1 mg/ml in the presence of DTT (10 mM), with gentle rolling. Binding reaction was stopped by adding hydrogen peroxide (0.01%), followed by ultra filtration (using 30 kD cutoff filter) and extensive wash until follow-through become colorless. Optical density was measured at both 278 and 477 nm using nanodrop spectrophotometer. Note the dramatic effect of the reducing agent on drug binding by the Cys2 SP1, compared to the absence of effect on the wild type SP1.
FIG. 13 is a histogram illustrating the redox-dependent release of Doxorubicin by Cys2 SP1. Doxorubicin (DOX) was complexed within Cys2 SP1 as described in FIGS. 9-12 above. Release of the drug in the presence of 0, 2 and 20 mM GSH was measured by ultrafiltration and size exclusion HPLC analysis (detection at 228 and 475 nm);
FIG. 14 is a histogram illustrating the effect of oxidation on DOX complex formation by Cys2 SP1. Doxorubicin (DOX) was reacted with Cys2 SP1 and wild type SP1 as described in FIGS. 9-13 above. Oxidized protein indicates exposure to excess of H2O2 prior to treatment with GSH. DOX complex formation was measured by ultrafiltration and size exclusion HPLC analysis (detection at 228 and 475 nm). […] 1=the retentate; 2=the flow through; and 3=a DOX standard 20 μg/ml.
FIG. 17 is a photograph of a fluorescent PAGE analysis illustrating effective complex formation with DOX by Cys2 and SP1 fusion proteins. Recombinant wild type (lanes 1 and 2), Cys2 (lanes 3 and 4), and SP1 fusion proteins having additional N-terminal tumor specific peptide RGD (CRGD, SEQ ID NO:151; fusion protein is SEQ ID NO: 5)(lanes 5 and 6), or RGD in reverse order (RGDC, SEQ ID NO: 152; fusion protein is SEQ ID NO: 6)(lanes 7 and 8) were reacted with DOX to form complex as described in FIGS. 9-14 above, and then separated on SDS-PAGE with (lanes 2, 4, 6 and 8) or without (lanes 1, 3, 5 and 7) denaturation by boiling in LSB.
(§1) Ultrafiltration was used for the detection of complex formation with the water soluble ligands FA and DOX which have a distinctive absorption properties and can be determined by spectroscopic measurements. […] Several additional washing cycles remove all remaining free FA and DOX, and the ligand-SP1 complex remains in the retained fraction.
(§2) Size exclusion chromatography is a common method for separation of molecules of different sizes under mild conditions and was employed to test FA and DOX complex formation under mild conditions. SP1 is eluted from the column after 7 min and is detected at 278 nm only, and free FA is eluted from the column (TSK G3000 SWXL, Tosohaas) after 16 min and is detected at 490 nm. The SP1-FA and SP1-DOX complexes also eluted at the same time but is detected also at 490 and 475 nm, respectively. DOX/SP1 ratio is determine from the standard curve obtained in solution.
Reverse phase HPLC (RP-HPLC) analysis separates between free DOX, PXT, and SP1. Both compounds bind to the resin (C-18) and are eluted at different acetonitrile concentrations, and detected at both 278 and 225 nm (SP1), 225 nm (PTX) and 477 nm (DOX).
Pyrogen free Cys2 SP1 variant (SEQ ID NO:3) in 20 mM (Na Phosphate buffer pH-6.7) final 2 mg/ml was diluted with DOX solution (Teva, Israel) 1:2 dilution final 1 mg/ml. Where indicated, GSH was added, and the solution is mixed overnight. Where indicated (oxidized), H2O2 is added to 0.1%, buffer added to 3× volume, and the solution is sonicated (3×22 sec. 1:1 pulse/pause at 3% amplitude 0.5 min. pause, using a Vibra-Cell 750 W sonicator).

[7] = Fluorescein-amine complex formation (ultrafiltration, size exclusion HPLC); format: binding
Method: FIG. 9 is a histogram showing redox-dependent complex formation with small molecules by Cys2 SP1. Pure Cys 2 mutant (1.5 mg/ml in Phosphate buffered saline, pH=7.5 (PBS)) was incubated for 2 hours at room temp, with I mM fluorescein-amine with or without glutathione (reduced form, GSH 3 mM). Binding reaction was stopped by adding hydrogen peroxide (0.01%), followed by ultra filtration (using a 30 kD cutoff filter) and extensive wash. Absorption analysis was conducted at both 278 and 492 nm, and the results expressed as the 492/278 ratio. Note that in the absence of the reducing agent (GSH), retention of the flourescein-amine is negligible;
FIG. 10 is a graphic representation of the redox-dependent fluorescein amine complex formation by Cys2 SP1, compared to the recombinant SP1. Fluorescein-amine was incubated with pure SP1 or Cys2 SP1 mutant (1.5 mg/ml in PBS pH=7.5) in the absence or presence of DTT (10 mM). Binding reaction was stopped by adding hydrogen peroxide (0.01%), followed by ultra filtration (using 30 kD cutoff filter) and extensive wash. Samples were analyzed by Gel filtration HPLC, and detected at both 228 and 490 nm. Calculated data is shown on the right.
FIG. 11 is a histogram illustrating the concentration dependent complex formation with fluorescein-amine by Cys2 SP1. Huorescien-amine (10, 33, 100 or 333 mM) was incubated with Cys 2 SP1 or pure wild type SP1 in the presence of 10 mM DTT, and the bound and unbound fractions analyzed by ultra-filtration and HPLC as in FIG. 10.
as §1, §2
5. Can complexed ligand be stabilized by association with the Cys2 SP1? Fluoresceine amine (FA): FA absorption peak is at 490 nm and at much lower extend at 278 nm (for a given FA concentration OD278/OD490=0.19)(see FIG. 31), when SP1 absorption peak is at 278 nm (see FIG. 30), and it is not detected at 490 nm. […] FA complexing with the Cys2 Sp1 variant was determined following incubation of FA and Cys2 SP1 variant in the absence or presence of GSH, followed by protein oxidation, ultra filtration (30 kDa cutoff) and exhaustive wash of the retained fraction with PBS with or without GSH. Absorption analysis at both 278 and 490 nm.

## COc1cccc2c1C(=O)c1c(O)c3c(c(O)c1C2=O)C[C@@](O)(C(=O)CO)C[C@@H]3O[C@H]1C[C@H](N)[C@H](O)[C@H](C)O1 [doxorubicin]
[1]
  IC50: ~0.6 mg/L (≈ 1.1 µM)
[2]
  histological examination of the tumors: extensive necrosis
[2]; 35 days
  average tumor size in the end of the experiment versus PBS-treated animals: much smaller

B1: Cys2: SP1 variant with cysteine residue inserted in position 2, SEQ ID NO:3 (protein)
chain: MCATRTPKLVKHTLLTRFKDEITREQIDNYINDYTNLLDLIPSMKSFNWGTDLGMESAELNRGYTHAFESTFESKSGLQEYLDSAALAAFAEGFLPTLSQRLVIDYFLY
modifications: Sp1 mutant variant Cys in position 2
[3]
  Heat stability: +
[4]
  oligomeric complex formation, stability and resistance: formed homo- and hetero-oligomeric complexes
[5]; hexane-treated, data not shown
  protease resistance after hexane treatment: resistance to protease treatment
[5]; methanol, hexane, SDS-PAGE
  resistance of oligomeric complex to organic solvents: Predominantly high molecular weight oligomer complex form; also recorded: even more resistant than the wild type
[6]; oxidized protein (H2O2)
  DOX complexing after oxidation prior to DOX addition: eliminates DOX complexing
[6]
  DOX complex formation: effective binding
[6]; listed as Cys2 SP1 variant
  DOX complex formation: much greater extent
[7]; 10 μM FA, 10 mM DTT
  FA complexing at low ligand concentration: efficient complexing
[7]; 10 mM DTT
  efficiency of FA complexing in the presence of reducing agents: greater than 3 fold
[7]; absence of the reducing agent (GSH), 492/278 ratio
  retention of the flourescein-amine: negligible
[7]; ≧100 μM FA
  efficiency of FA complexing relative to wild type SP1: greater than 3 fold
